# In doi:10.1101/2025.10.28.685229:
# pKd: −log10 of the molar value.
# Assays:
# [1] = target: YF17D virus particles (live-attenuated YFV 17D) (yellow fever virus, strain 17D); test: BLI
# [2] = target: YF17D VLPs containing only E and M proteins (yellow fever virus, strain 17D); test: BLI
substance,measurement,setting,value
Fc-tagged LRP8-LBD (LRP8 LA1237 with a C-terminal human IgG Fc) (Fc fusion),pKd,[1],6.34
same,pKd,[2],6.52
